Laboratory results: US20160312207A1 (Stanford University, published 2016)
Values belong to the molecule of their own block, whether it stands above or below them.

Assays:
human RSPO4 [1] = molecular target: T1, human RSPO4 (human, UniProt Q2I0M5 20-234, limits assumed); assay: Biacore (SPR)
T1 construct: Recombinant protein; also called R-spondin 4

human RSPO2 [2] = molecular target: T2, human RSPO2 (human, UniProt Q6UXX9 22-243, limits assumed); assay: Biacore (SPR)
T2 construct: Recombinant protein; also called R-spondin 2; recombinant human RSPO2
T2 sequence (Q6UXX9 22-243 limits assumed): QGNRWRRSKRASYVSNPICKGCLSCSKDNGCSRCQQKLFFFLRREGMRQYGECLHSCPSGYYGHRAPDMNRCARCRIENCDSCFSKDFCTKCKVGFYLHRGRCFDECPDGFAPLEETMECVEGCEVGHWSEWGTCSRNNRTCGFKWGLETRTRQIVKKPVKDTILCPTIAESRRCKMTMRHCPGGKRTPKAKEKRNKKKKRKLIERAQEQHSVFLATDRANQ

human RSPO3 [3] = molecular target: T3, human RSPO3 (human, UniProt Q9BXY4 22-272, limits assumed); assay: Biacore (SPR)
T3 construct: Recombinant protein; also called R-spondin 3
T3 sequence (looked up): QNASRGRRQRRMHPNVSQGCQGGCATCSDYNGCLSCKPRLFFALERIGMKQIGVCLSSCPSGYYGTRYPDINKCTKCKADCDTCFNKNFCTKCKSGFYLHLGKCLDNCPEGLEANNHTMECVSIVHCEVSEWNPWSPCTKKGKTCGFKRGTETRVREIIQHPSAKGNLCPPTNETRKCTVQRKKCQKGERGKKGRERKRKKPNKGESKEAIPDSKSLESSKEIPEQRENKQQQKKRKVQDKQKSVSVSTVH

human RSPO1 [4] = molecular target: T4, human RSPO1 (human, UniProt Q2MKA7 21-263, limits assumed); assay: Biacore (SPR)
T4 construct: Recombinant protein; also called R-spondin 1; recombinant R-spondin
T4 sequence (Q2MKA7 21-263 limits assumed): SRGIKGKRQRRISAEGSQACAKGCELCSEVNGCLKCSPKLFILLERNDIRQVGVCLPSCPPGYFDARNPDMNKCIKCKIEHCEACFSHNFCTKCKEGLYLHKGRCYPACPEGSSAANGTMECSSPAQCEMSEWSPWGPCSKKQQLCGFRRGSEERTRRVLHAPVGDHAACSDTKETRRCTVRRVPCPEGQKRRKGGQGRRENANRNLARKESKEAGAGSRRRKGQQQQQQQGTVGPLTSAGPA

human RSPO3 [5] = molecular target: T3, human RSPO3; assay: Biacore (SPR); human RSPO3
human RSPO4 [6] = molecular target: T1, human RSPO4; assay: Biacore (SPR); human RSPO4
human RSPO2 [7] = molecular target: T2, human RSPO2; assay: Biacore (SPR); human RSPO2
human RSPO2 [8] = molecular target: T2, human RSPO2; assay: Biacore (SPR), against ZNRF3-Fc ECD fusion tested in parallel
human RSPO3 [9] = molecular target: T3, human RSPO3; assay: as above
human RSPO1 [10] = molecular target: T4, human RSPO1; assay: Biacore (SPR); human RSPO1

T1 sequence (Q2I0M5 20-234 limits assumed): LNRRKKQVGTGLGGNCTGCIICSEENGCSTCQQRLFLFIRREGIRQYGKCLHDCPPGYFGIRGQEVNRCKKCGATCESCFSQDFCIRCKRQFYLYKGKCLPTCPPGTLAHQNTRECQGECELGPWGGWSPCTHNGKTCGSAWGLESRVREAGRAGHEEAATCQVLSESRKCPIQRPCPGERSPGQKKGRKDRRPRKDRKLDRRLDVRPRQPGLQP

Kd (human RSPO4 [1]): > 1000 nM | Kd (human RSPO2 [2]): 12.8 nM | Kd (human RSPO3 [3]): 6.58 nM | Kd (human RSPO1 [4]): 381 nM
Molecule: ZNRF3-Fc ECD fusion (Fc fusion)

Kd (human RSPO3 [5]): 0.00145 nM | Kd (human RSPO4 [6]): 142 nM | Kd (human RSPO2 [7]): 0.00182 nM | fold stronger affinity than the ZNRF3-Fc ECD fusion (human RSPO2 [8]): ~7000 fold | fold stronger affinity than the ZNRF3-Fc ECD fusion (human RSPO3 [9]): ~4500 fold | Kd (human RSPO1 [10]): 53 nM
B1: soluble RNF43-Fc ECD fusion protein (Fc fusion)
chain: GFGHTGRVLAAAVESERSAEQKAVIRVIPLKMDPTGKLNLTLEGVFAGVAEVTPAEGKLMQSHPLYLCNASDDDNLEPGFISIVKLESPRRAPRPCLSLASKARMAGERGANAVLFDITEDRSAAEQLQQPLGLTKPVVLIWGSDAAKLMEFVYKNRKAYVWIELKEPPRRLEPRGPTIKPCPPCKCPAPNLLGGPSVFIFPPKIKDVLMISLSPIVTCVVVDVSEDDPDVQISWFVNNVEVHTAQTQTHREDYNSTLRVVSALPIQHQDWMSGKEFKCKVNNKDLPAPIERTISKPKGSVRAPQVYVLPPPEEEMTKKQVTLTCMVTDFMPEDIYVEWTNNGKTELNYKNTEPVLDSDGSYFMYSKLRVEKKNWVERNSYSCSVVHEGLHNHHTTKSFSRTPGK
notes: No linker between ECD and Fc is stated; also called RNF43 ECD-Fc fusion protein; RNF43 ECD
